Data on two molecules can be found in publication PMC8519809 (Cell Reports, 2021).

One experiment concerns the target T1, MERS stem helix peptide (MERS-CoV).
T1 chain: DFQDELDEFFKNVST
The experiment can be described thus: crystal structure.

Experiment [1] concerns the target T2, SARS-CoV-2 stem helix peptide (SARS-CoV-2).
T2 chain: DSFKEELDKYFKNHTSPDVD
The experiment can be described thus: crystal structure.

B1: Fab22 (Fab, V domains shown)
VH: EVQLQQPGPVLVKPGASVRMSCKASGYRITDNFMNWVKQSHGKSLEWIGIINPYNGGTKYNQKFKGKATLTVDTSSSTAYMELNSLTSEDSAVYYCTRVRGNDYHGRAMDYWGQGTSVTVSS
VL: DVVLTQTPLSLPVNIGDQASISCKSTKSLLNRDGFTFLDWYLQKPGQSPQLLIYLVSNRFSGVPDRFSGSGSGTDFTLKISRVEAEDLGVYYCFQSNYLFTFGSGTKLEIK
Consider B1, for which, in the experiment with MERS stem helix peptide, the binding result is given as “binds”.

B2: LCmod-Fab22 (Fab, V domains shown)
VH: EVQLQQPGPVLVKPGASVRMSCKASGYRITDNFMNWVKQSHGKSLEWIGIINPYNGGTKYNQKFKGKATLTVDTSSSTAYMELNSLTSEDSAVYYCTRVRGNDYHGRAMDYWGQGTSVTVSS
VL: DVVLTQTPLSLPVNIGDQASISCKSTKSLLNRDGFTFLDWYLQKPGQSPQLLIYLVSNRFSGVPDRFSGSGSGTDFTLKISRVEAEDLGVYYCFQSNYLFTFGSGTKLEIK
Regarding B2, the binding result in experiment [1] is given as “binds”.
